Data on eight substances can be found in PMC12712897.

In test [1] the target is type I interleukin-1 receptor (UniProt P14778). Nature of the test: SPR; IL-1R1 captured on a CM5 chip via a His Capture Kit; various concentrations of IL-1Ra variants and IL-1β flowed as analytes; Biacore T200.
For test [2] the target is unchanged. The test can be described thus: MST; fluorescently labeled IL-1R1 titrated with serially diluted IL-1Ra variants and IL-1β; Monolith NT.115-pico.
Test [3] shares this target.
The target is the same in test [4]. The source holds these as a separate data set.

UniProt P14778, sequence (P14778 18-336): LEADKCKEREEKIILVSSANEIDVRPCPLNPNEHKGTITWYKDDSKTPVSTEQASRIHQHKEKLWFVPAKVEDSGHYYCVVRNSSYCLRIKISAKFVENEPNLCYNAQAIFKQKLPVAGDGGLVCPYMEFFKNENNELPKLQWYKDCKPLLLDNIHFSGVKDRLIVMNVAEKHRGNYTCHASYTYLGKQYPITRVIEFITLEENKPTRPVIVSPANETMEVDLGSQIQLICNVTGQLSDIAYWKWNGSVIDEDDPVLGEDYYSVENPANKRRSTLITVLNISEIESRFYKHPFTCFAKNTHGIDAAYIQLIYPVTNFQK

Consider hIL-1Ra E127N (natural protein), for which the Kd stood at 0.281 nM in test [1] and 6.06 nM in test [2].

Consider hIL-1Ra E127S (natural protein), for which the results for the Kd in test [1] and in test [2] were 0.248 nM and 2.45 nM, respectively.

With hIL-1Ra E127C (natural protein), the Kd in test [1] was 0.396 nM; in test [2] it was 7.52 nM.

For the substance hIL-1Ra E127V (natural protein), the Kd in test [1] is 0.258 nM; in test [2], 4.61 nM.

hIL-1Ra E127H (natural protein): the Kd was determined as 0.256 nM in test [1] and 4.59 nM in test [2].

In the case of hIL-1Ra E127D (natural protein), the Kd in test [1] stood at 3.5 nM; in test [2] it was 40.6 nM.

In the case of hIL-1Ra E127K (natural protein), the Kd in test [1] is 0.41 nM; in test [2], 5.54 nM. For the same substance, the reduction of IL-1β mRNA in HMC-3 cells (IL-1β 1 ng/ml + hIL-1Ra 25 ng/ml, 24 h; blocks IL-1β acting on IL-1R1) compared with RD hIL-1Ra WT in test [3] stood at 35%. Moreover, the reduction of IL-1β mRNA in HMC-3 cells (IL-1β 1 ng/ml + hIL-1Ra 25 ng/ml, 24 h; blocks IL-1β acting on IL-1R1) compared with iPT hIL-1Ra WT in test [3] turned out to be 32%.

With hIL-1Ra E127Q (natural protein), in test [4], the reduction of IL-6 mRNA in HMC-3 cells (IL-1β 1 ng/ml + hIL-1Ra 25 ng/ml, 24 h; blocks IL-1β acting on IL-1R1) compared with RD hIL-1Ra WT was 53% and the reduction of IL-6 mRNA in HMC-3 cells (IL-1β 1 ng/ml + hIL-1Ra 25 ng/ml, 24 h; blocks IL-1β acting on IL-1R1) compared with iPT hIL-1Ra WT turned out to be 49%. The substance further registered a Kd in test [1] of 0.283 nM. Moreover, the Kd in test [2] was 3.84 nM.

A word on the Kd: it is a measure of binding affinity in units of concentration. High values mean weaker binding, low ones tighter binding.
